Test results: the Immune Epitope Database (IEDB)

Assays:
HLA-A*02:01 [1] = assay: IEDB peptide-MHC binding, purified MHC/competitive/radioactivity; filed as Kd, often an IC50 or EC50 that approximates it; ≥ and ≤ were set here for values at or beyond the usual limits of such assays
HLA-A*02:06 = assay: as above
HLA-A*02:17 = assay: as above
HLA-A*02:01 [2] = assay: IEDB peptide-MHC binding, purified MHC/competitive/fluorescence; filed as Kd, often an IC50 or EC50 that approximates it; ≥ and ≤ were set here for values at or beyond the usual limits of such assays
HLA-A*02:03 [3] = assay: as above
HLA-A*02:11 = assay: as above
HLA-A*02:12 = assay: as above
HLA-A*02:16 = assay: as above
HLA-A*02:19 = assay: as above
HLA-A*03:01 = assay: as above
HLA-A*26:01 = assay: as above
HLA-A*29:02 = assay: as above
HLA-A*68:02 [4] = assay: as above; conditions: source organism: Brucella suis 1330
HLA-A*69:01 = assay: as above
HLA-B*15:01 [5] = assay: as above
HLA-B*15:17 = assay: as above
HLA-B*18:01 = assay: as above
HLA-B*27:03 = assay: as above
HLA-B*39:01 = assay: as above
HLA-B*46:01 = assay: as above
HLA-B*51:01 [6] = assay: as above
HLA-B*57:01 = assay: as above
HLA-A*02:03 [7] = assay: IEDB peptide-MHC binding, purified MHC/competitive/radioactivity; filed as Kd, often an IC50 or EC50 that approximates it; ≥ and ≤ were set here for values at or beyond the usual limits of such assays
HLA-B*58:01 = assay: as above
HLA-B*07:02 = assay: IEDB peptide-MHC binding, purified MHC/direct/fluorescence; filed as Kd, often an IC50 or EC50 that approximates it; ≥ and ≤ were set here for values at or beyond the usual limits of such assays; conditions: source organism: Vibrio cholerae
HLA-B*15:01 [8] = assay: as above; conditions: source organism: Vibrio cholerae O395
HLA-B*51:01 [9] = assay: as above; conditions: source organism: Vibrio cholerae
HLA-A*24:03 = assay: IEDB peptide-MHC binding, purified MHC/competitive/fluorescence; filed as Kd, often an IC50 or EC50 that approximates it; ≥ and ≤ were set here for values at or beyond the usual limits of such assays; conditions: source organism: Cryptosporidium parvum Iowa II
HLA-A*68:02 [10] = assay: IEDB peptide-MHC binding, purified MHC/competitive/radioactivity; filed as Kd, often an IC50 or EC50 that approximates it; ≥ and ≤ were set here for values at or beyond the usual limits of such assays; conditions: source organism: Dengue virus 3 Singapore/8120/1995
HLA-B*35:01 = assay: as above; conditions: source organism: Dengue virus 3 Martinique/1243/1999
HLA-B*53:01 = assay: as above; conditions: source organism: Dengue virus 3 Martinique/1243/1999
[11] = source organism: Dengue virus 1 Nauru/West Pac/1974
[12] = source organism: Brucella suis 1330
[13] = source organism: Dengue virus 2 Jamaica/1409/1983
[14] = source organism: Cryptosporidium parvum Iowa II
[15] = source organism: Dengue virus 3 China/80-2/1980
[16] = source organism: Dengue virus 3 Singapore/8120/1995
[17] = source organism: Vibrio vulnificus YJ016

Sequence: MLDVDLHPA
- Kd (HLA-A*02:01 [1]; [11]): 0.0752 µM
- Kd (HLA-A*02:06; [11]): 0.018 µM
- Kd (HLA-A*02:17; [11]): 19.8 µM

Sequence: TEWPQLKVA
- Kd (HLA-A*02:01 [2]; [12]): ≥ 20 µM
- Kd (HLA-A*02:03 [3]; [12]): ≥ 20 µM
- Kd (HLA-A*02:11; [12]): ≥ 20 µM
- Kd (HLA-A*02:12; [12]): ≥ 20 µM
- Kd (HLA-A*02:16; [12]): ≥ 20 µM
- Kd (HLA-A*02:19; [12]): ≥ 20 µM
- Kd (HLA-A*03:01; [12]): ≥ 20 µM
- Kd (HLA-A*26:01; [12]): ≥ 20 µM
- Kd (HLA-A*29:02; [12]): ≥ 20 µM
- Kd (HLA-A*68:02 [4]): ≥ 20 µM
- Kd (HLA-A*69:01; [12]): ≥ 20 µM
- Kd (HLA-B*15:01 [5]; [12]): ≥ 20 µM
- Kd (HLA-B*15:17; [12]): ≥ 20 µM
- Kd (HLA-B*18:01; [12]): 0.0336 µM
- Kd (HLA-B*27:03; [12]): ≥ 20 µM
- Kd (HLA-B*39:01; [12]): ≥ 20 µM
- Kd (HLA-B*46:01; [12]): ≥ 20 µM
- Kd (HLA-B*51:01 [6]; [12]): ≥ 20 µM
- Kd (HLA-B*57:01; [12]): ≥ 20 µM

Sequence: ALIFILLTAV
- Kd (HLA-A*02:01 [1]; [13]): 0.000498 µM
- Kd (HLA-A*02:03 [7]; [13]): 0.0132 µM
- Kd (HLA-A*02:06; [13]): 0.0568 µM
- Kd (HLA-A*02:17; [13]): ≥ 39.4 µM

Sequence: PASAAQRRGR
- Kd (HLA-B*58:01; source organism: Dengue virus 4 Philippines/H241/1956): 15.4 µM

Sequence: LLRQHWLSL
- Kd (HLA-B*07:02): 0.013 µM
- Kd (HLA-B*15:01 [8]): 0.049 µM
- Kd (HLA-B*51:01 [9]): ≥ 20 µM

Sequence: DLAQDPMLI
- Kd (HLA-A*02:01 [2]; [14]): ≥ 20 µM
- Kd (HLA-A*02:03 [3]; [14]): ≥ 20 µM
- Kd (HLA-A*02:11; [14]): ≥ 20 µM
- Kd (HLA-A*02:12; [14]): ≥ 20 µM
- Kd (HLA-A*02:16; [14]): 0.397 µM
- Kd (HLA-A*02:19; [14]): ≥ 20 µM
- Kd (HLA-A*03:01; [14]): ≥ 20 µM
- Kd (HLA-A*24:03): ≥ 20 µM
- Kd (HLA-A*26:01; [14]): ≥ 20 µM
- Kd (HLA-A*29:02; [14]): ≥ 20 µM
- Kd (HLA-A*69:01; [14]): ≥ 20 µM
- Kd (HLA-B*15:01 [5]; [14]): ≥ 20 µM
- Kd (HLA-B*15:17; [14]): ≥ 20 µM
- Kd (HLA-B*18:01; [14]): ≥ 20 µM
- Kd (HLA-B*27:03; [14]): ≥ 20 µM
- Kd (HLA-B*39:01; [14]): ≥ 20 µM
- Kd (HLA-B*46:01; [14]): ≥ 20 µM
- Kd (HLA-B*51:01 [6]; [14]): ≥ 20 µM
- Kd (HLA-B*57:01; [14]): ≥ 20 µM

Sequence: MIAGVLFTFV
- Kd (HLA-A*02:01 [1]; [15]): 0.0107 µM
- Kd (HLA-A*02:03 [7]; [16]): 0.00185 µM
- Kd (HLA-A*02:06; [16]): 0.00244 µM
- Kd (HLA-A*02:17; [15]): 0.423 µM
- Kd (HLA-A*68:02 [10]): 0.00175 µM

Sequence: MALKLITQF
- Kd (HLA-B*35:01): 0.00125 µM
- Kd (HLA-B*53:01): 0.0224 µM
- Kd (HLA-B*58:01; source organism: Dengue virus 3 Martinique/1243/1999): 0.00216 µM

Sequence: VTFGARASF
- Kd (HLA-A*02:01 [2]; [17]): ≥ 20 µM
- Kd (HLA-A*02:03 [3]; [17]): ≥ 20 µM
- Kd (HLA-A*02:11; [17]): ≥ 20 µM
- Kd (HLA-A*02:12; [17]): ≥ 20 µM
- Kd (HLA-A*02:16; [17]): ≥ 20 µM
- Kd (HLA-A*02:19; [17]): ≥ 20 µM
- Kd (HLA-A*03:01; [17]): ≥ 20 µM
- Kd (HLA-A*26:01; [17]): ≥ 20 µM
- Kd (HLA-A*69:01; [17]): ≥ 20 µM
- Kd (HLA-B*27:03; [17]): ≥ 20 µM
- Kd (HLA-B*39:01; [17]): ≥ 20 µM
- Kd (HLA-B*57:01; [17]): 0.0974 µM
